Reference: ChEMBL document CHEMBL1139472, “Synthesis of N-{4-[(2,4-diamino-5-methyl-4,7-dihydro-3H-pyrrolo[2,3-d]pyrimidin-6-yl)thio]benzoyl}-L-glutamic acid and N-{4-[(2-amino-4-oxo-5-methyl-4,7-dihydro-3H-pyrrolo[2,3-d]pyrimidin-6-yl)thio]benzoyl}-L-glutamic acid as dual inhibitors of dihydrofolate reductase and thymidylate synthase and …” (J Med Chem, 2005)

Legend:
[1] = substrate: Nc1nc(N)c2nc(CNc3ccc(C(=O)N[C@@H](CCC(=O)O)C(=O)O)cc3)cnc2n1; experiment: (§1) Activity of human recombinant cytosolic FPGS relative to aminopterin
[2] = substrate: Cc1c(Sc2ccc(C(=O)N[C@@H](CCC(=O)O)C(=O)O)cc2)[nH]c2nc(N)[nH]c(=O)c12; experiment: as §1
[3] = substrate: Cc1c(Sc2ccc(C(=O)N[C@@H](CCC(=O)O)C(=O)O)cc2)[nH]c2nc(N)[nH]c(=O)c12; experiment: Activity of human recombinant cytosolic FPGS

B1: Folylpolyglutamate synthase, mitochondrial (Homo sapiens), Q05932 (protein)
chain: MSRARSHLRAALFLAAASARGITTQVAARRGLSAWPVPQEPSMEYQDAVRMLNTLQTNAGYLEQVKRQRGDPQTQLEAMELYLARSGLQVEDLDRLNIIHVTGTKGKGSTCAFTECILRSYGLKTGFFSSPHLVQVRERIRINGQPISPELFTKYFWRLYHRLEETKDGSCVSMPPYFRFLTLMAFHVFLQEKVDLAVVEVGIGGAYDCTNIIRKPVVCGVSSLGIDHTSLLGDTVEKIAWQKGGIFKQGVPAFTVLQPEGPLAVLRDRAQQISCPLYLCPMLEALEEGGPPLTLGLEGEHQRSNAALALQLAHCWLQRQDRHGAGEPKASRPGLLWQLPLAPVFQPTSHMRLGLRNTEWPGRTQVLRRGPLTWYLDGAHTASSAQACVRWFRQALQGRERPSGGPEVRVLLFNATGDRDPAALLKLLQPCQFDYAVFCPNLTEVSSTGNADQQNFTVTLDQVLLRCLEHQQHWNHLDEEQASPDLWSAPSPEPGGSASLLLAPHPPHTCSASSLVFSCISHALQWISQGRDPIFQPPSPPKGLLTHPVAHSGASILREAAAIHVLVTGSLHLVGGVLKLLEPALSQ
[1]
  Vmax: 1
[2]
  Vmax: 0.29
[3]
  Km: 5.1 µM
